Results: the supplement of paper PMC5998384

Assays:
HeLa Kyoto [1] = assay: thermal stability score vs G1/S (z-score of summed log2 fold changes over temperatures); higher = more thermally stable than in G1/S
HeLa Kyoto [2] = assay: melting temperature (median over replicates), in situ; higher = more thermally stable
HeLa Kyoto [3] = assay: solubility in G1/S (NP-40 vs SDS abundance) (log2 ratio); higher = more soluble; details: cell cycle stage: G1/S
HeLa Kyoto [4] = assay: solubility change mitosis vs G1/S (difference of NP-40 vs SDS log2 ratios) (log2 ratio difference); higher = more soluble in mitosis
[5] = cell cycle stage: early G1 (4.5 h after nocodazole release)
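Wherever melting temperature (median over replicates), in situ is given: HeLa Kyoto cells synchronized by double thymidine or nocodazole block, proteins quantified by TMT10plex mass spectrometry, three independent biological replicates.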
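Wherever solubility change mitosis vs G1/S (difference of NP-40 vs SDS log2 ratios) is given: synchronized HeLa Kyoto cells (double thymidine block for G1/S, nocodazole release for mitosis), protein amounts in NP-40 versus SDS lysates quantified by mass spectrometry, three biological replicates.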
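Wherever solubility in G1/S (NP-40 vs SDS abundance) is given: HeLa Kyoto cells arrested at G1/S by double thymidine block, proteins quantified by TMT10plex mass spectrometry in mild NP-40 versus SDS extracts, three biological replicates.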
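Wherever thermal stability score vs G1/S (z-score of summed log2 fold changes over temperatures) is given: synchronized HeLa Kyoto cells, proteins quantified by TMT10plex mass spectrometry, three biological replicates, mitosis taken 0.5 h after nocodazole release, G1/S directly after double thymidine block.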

Substance | thermal stability score (HeLa Kyoto [1]; [5]) | thermal stability score (HeLa Kyoto [1]; cell cycle stage: mitosis) | melting temperature (HeLa Kyoto [2]; cell cycle stage: mitosis) [°C] | solubility in G1/S (log2) (HeLa Kyoto [3]) | solubility change mitosis (log2) (HeLa Kyoto [4]) | melting temperature (HeLa Kyoto [2]; cell cycle stage: G1/S) [°C]
MGNCCWTQCFGLLRKEAGRLQRVGGGGGSKYFRTCSRGEHLTIEFENLVESDEGESPGSSHRPLTEEEIVDLRERHYDSIAEKQKDLDKKIQKELALQEEKLRLEEEALYAAQREAARAAKQRKLLEQERQRIVQQYHPSNNGEYQSSGPEDDFESCLRNMKSQYEVFRSSRLSSDATVLTPNTESSCDLMTKTKSTSGNDDSTSLDLEWEDEEGMNRMLPMRERSKTEEDILRAALKYSNKKTGSNPTSASDDSNGLEWENDFVSAEMDDNGNSEYSGFVNPVLELSDSGIRHSDTDQQTR [AP1AR] | -0.31 | -1.09 | 59.6 | 0.104 | -0.24 | 
MFKVIQRSVGPASLSLLTFKVYAAPKKDSPPKNSVKVDELSLYSVPEGQSKYVEEARSQLEESISQLRHYCEPYTTWCQETYSQTKPKMQSLVQWGLDSYDYLQNAPPGFFPRLGVIGFAGLIGLLLARGSKIKKLVYPPGFMGLAASLYYPQQAIVFAQVSGERLYDWGLRGYIVIEDLWKENFQKPGNVKNSPGTK [APOO] | -1.86 | -2.5 | 56 | 0.444 | 0.185 | 54.8
MDLGPLNICEEMTILHGGFLLAEQLFHPKALAELTKSDWERVGRPIVEALREISSAAAHSQPFAWKKKALIIIWAKVLQPHPVTPSDTETRWQEDLFFSVGNMIPTINHTILFELLKSLEASGLFIQLLMALPTTICHAELERFLEHVTVDTSAEDVAFFLDVWWEVMKHKGHPQDPLLSQFSAMAHKYLPALDEFPHPPKRLRSDPDACPTMPLLAMLLRGLTQIQSRILGPGRKCCALANLADMLTVFALTEDDPQEVSATVYLDKLATVISVWNSDTQNPYHQQALAEKVKEAERDVSLTSLAKLPSETIFVGCEFLHHLLREWGEELQAVLRSSQGTSYDSYRLCDSLTSFSQNATLYLNRTSLSKEDRQVVSELAECVRDFLRKTSTVLKNRALEDITASIAMAVIQQKMDRHMEVCYIFASEKKWAFSDEWVACLGSNRALFRQPDLVLRLLETVIDVSTADRAIPESQIRQVIHLILECYADLSLPGKNKVLAGILRSWGRKGLSEKLLAYVEGFQEDLNTTFNQLTQSASEQGLAKAVASVARLVIVHPEVTVKKMCSLAVVNLGTHKFLAQILTAFPALRFVEEQGPNSSATFMVSCLKETVWMKFSTPKEEKQFLELLNCLMSPVKPQGIPVAALLEPDEVLKEFVLPFLRLDVEEVDLSLRIFIQTLEANACREEYWLQTCSPFPLLFSLCQLLDRFSKYWQLPKEKRCLSLDRKDLAIHILELLCEIVSANAETFSPDVWIKSLSWLHRKLEQLDWTVGLRLKSFFEGHFKCEVPATLFEICKLSEDEWTSQAHPGYGAGTGLLAWMECCCVSSGISERMLSLLVVDVGNPEEVRLFSKGFLVALVQVMPWCSPQEWQRLHQLTRRLLEKQLLHVPYSLEYIQFVPLLNLKPFAQELQLSVLFLRTFQFLCSHSCRDWLPLEGWNHVVKLLCGSLTRLLDSVRAIQAAGPWVQGPEQDLTQEALFVYTQVFCHALHIMAMLHPEVCEPLYVLALETLTCYETLSKTNPSVSSLLQRAHEQRFLKSIAEGIGPEERRQTLLQKMSSF [GEMIN4] | 0.771 | 3.29 | 49.3 | -0.428 | -0.14 | 47
MLFNSVLRQPQLGVLRNGWSSQYPLQSLLTGYQCSGNDEHTSYGETGVPVPPFGCTFSSAPNMEHVLAVANEEGFVRLYNTESQSFRKKCFKEWMAHWNAVFDLAWVPGELKLVTAAGDQTAKFWDVKAGELIGTCKGHQCSLKSVAFSKFEKAVFCTGGRDGNIMVWDTRCNKKDGFYRQVNQISGAHNTSDKQTPSKPKKKQNSKGLAPSVDFQQSVTVVLFQDENTLVSAGAVDGIIKVWDLRKNYTAYRQEPIASKSFLYPGSSTRKLGYSSLILDSTGSTLFANCTDDNIYMFNMTGLKTSPVAIFNGHQNSTFYVKSSLSPDDQFLVSGSSDEAAYIWKVSTPWQPPTVLLGHSQEVTSVCWCPSDFTKIATCSDDNTLKIWRLNRGLEEKPGGDKLSTVGWASQKKKESRPGLVTVTSSQSTPAKAPRAKCNPSNSSPSSAACAPSCAGDLPLPSNTPTFSIKTSPAKARSPINRRGSVSSVSPKPPSSFKMSIRNWVTRTPSSSPPITPPASETKIMSPRKALIPVSQKSSQAEACSESRNRVKRRLDSSCLESVKQKCVKSCNCVTELDGQVENLHLDLCCLAGNQEDLSKDSLGPTKSSKIEGAGTSISEPPSPISPYASESCGTLPLPLRPCGEGSEMVGKENSSPENKNWLLAMAAKRKAENPSPRSPSSQTPNSRRQSGKKLPSPVTITPSSMRKICTYFHRKSQEDFCGPEHSTEL [DTL] | -1.36 | -1.25 | 50.1 | -0.00542 | -0.0846 | 50.4
MVRKPVVSTISKGGYLQGNVNGRLPSLGNKEPPGQEKVQLKRKVTLLRGVSIIIGTIIGAGIFISPKGVLQNTGSVGMSLTIWTVCGVLSLFGALSYAELGTTIKKSGGHYTYILEVFGPLPAFVRVWVELLIIRPAATAVISLAFGRYILEPFFIQCEIPELAIKLITAVGITVVMVLNSMSVSWSARIQIFLTFCKLTAILIIIVPGVMQLIKGQTQNFKDAFSGRDSSITRLPLAFYYGMYAYAGWFYLNFVTEEVENPEKTIPLAICISMAIVTIGYVLTNVAYFTTINAEELLLSNAVAVTFSERLLGNFSLAVPIFVALSCFGSMNGGVFAVSRLFYVASREGHLPEILSMIHVRKHTPLPAVIVLHPLTMIMLFSGDLDSLLNFLSFARWLFIGLAVAGLIYLRYKCPDMHRPFKVPLFIPALFSFTCLFMVALSLYSDPFSTGIGFVITLTGVPAYYLFIIWDKKPRWFRIMSEKITRTLQIILEVVPEEDKL [SLC7A11] | 0.372 | 0.123 | 57.5 | -0.0116 | -0.169 | 
MPAVSKGDGMRGLAVFISDIRNCKSKEAEIKRINKELANIRSKFKGDKALDGYSKKKYVCKLLFIFLLGHDIDFGHMEAVNLLSSNRYTEKQIGYLFISVLVNSNSELIRLINNAIKNDLASRNPTFMGLALHCIASVGSREMAEAFAGEIPKVLVAGDTMDSVKQSAALCLLRLYRTSPDLVPMGDWTSRVVHLLNDQHLGVVTAATSLITTLAQKNPEEFKTSVSLAVSRLSRIVTSASTDLQDYTYYFVPAPWLSVKLLRLLQCYPPPDPAVRGRLTECLETILNKAQEPPKSKKVQHSNAKNAVLFEAISLIIHHDSEPNLLVRACNQLGQFLQHRETNLRYLALESMCTLASSEFSHEAVKTHIETVINALKTERDVSVRQRAVDLLYAMCDRSNAPQIVAEMLSYLETADYSIREEIVLKVAILAEKYAVDYTWYVDTILNLIRIAGDYVSEEVWYRVIQIVINRDDVQGYAAKTVFEALQAPACHENLVKVGGYILGEFGNLIAGDPRSSPLIQFHLLHSKFHLCSVPTRALLLSTYIKFVNLFPEVKPTIQDVLRSDSQLRNADVELQQRAVEYLRLSTVASTDILATVLEEMPPFPERESSILAKLKKKKGPSTVTDLEDTKRDRSVDVNGGPEPAPASTSAVSTPSPSADLLGLGAAPPAPAGPPPSSGGSGLLVDVFSDSASVVAPLAPGSEDNFARFVCKNNGVLFENQLLQIGLKSEFRQNLGRMFIFYGNKTSTQFLNFTPTLICSDDLQPNLNLQTKPVDPTVEGGAQVQQVVNIECVSDFTEAPVLNIQFRYGGTFQNVSVQLPITLNKFFQPTEMASQDFFQRWKQLSNPQQEVQNIFKAKHPMDTEVTKAKIIGFGSALLEEVDPNPANFVGAGIIHTKTTQIGCLLRLEPNLQAQMYRLTLRTSKEAVSQRLCELLSAQF [AP2A2] | -0.19 | -0.622 | 51.7 | -0.202 | -0.139 | 52.2
MFFWCACCLMVAWRVSASDAEHCPELPPVDNSIFVAKEVEGQILGTYVCIKGYHLVGKKTLFCNASKEWDNTTTECRLGHCPDPVLVNGEFSSSGPVNVSDKITFMCNDHYILKGSNRSQCLEDHTWAPPFPICKSRDCDPPGNPVHGYFEGNNFTLGSTISYYCEDRYYLVGVQEQQCVDGEWSSALPVCKLIQEAPKPECEKALLAFQESKNLCEAMENFMQQLKESGMTMEELKYSLELKKAELKAKLL [C4BPB] | 5.14 | 5.56 | 54.8 | 0.187 | -0.0172 | 54.8
ABCC1 | -0.781 | -0.316 | 53.7 | 0.0337 | -0.0751 | 54.5
EIF4G3 | 0.306 | 2.44 | 49.4 | 0.109 | -0.178 | 49.1
